Source: patent publication US20150104450A1

Tests used:
[1] = target: cynomolgus monkey CD86 extracellular domain with FLAG 10xhis tag (cynomolgus monkey); experiment: SPR (Biacore 2000), CTLA-4-Fc amine-coupled to CM5, ligand ECD as analyte, monovalent affinity
[2] = target: human CD86 extracellular domain with FLAG 10xhis tag (human); experiment: as above
[3] = target: cynomolgus monkey CD86 extracellular domain with FLAG 10xhis tag (cynomolgus monkey); experiment: SPR (Biacore 2000), ratio of KD
[4] = target: human CD86 extracellular domain with FLAG 10xhis tag (human); experiment: SPR (Biacore 2000), ratio of KD

human CD86 extracellular domain with FLAG 10xhis tag (human), sequence (chain, as listed by the source limits assumed, form in doubt): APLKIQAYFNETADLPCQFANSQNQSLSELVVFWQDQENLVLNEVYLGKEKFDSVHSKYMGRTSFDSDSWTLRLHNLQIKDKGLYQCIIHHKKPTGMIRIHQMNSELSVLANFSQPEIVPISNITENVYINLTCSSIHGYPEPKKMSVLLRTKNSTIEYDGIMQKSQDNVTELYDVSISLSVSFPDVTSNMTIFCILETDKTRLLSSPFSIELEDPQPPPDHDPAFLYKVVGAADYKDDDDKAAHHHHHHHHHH
cynomolgus monkey CD86 extracellular domain with FLAG 10xhis tag (cynomolgus monkey), sequence (chain, as listed by the source limits assumed, form in doubt): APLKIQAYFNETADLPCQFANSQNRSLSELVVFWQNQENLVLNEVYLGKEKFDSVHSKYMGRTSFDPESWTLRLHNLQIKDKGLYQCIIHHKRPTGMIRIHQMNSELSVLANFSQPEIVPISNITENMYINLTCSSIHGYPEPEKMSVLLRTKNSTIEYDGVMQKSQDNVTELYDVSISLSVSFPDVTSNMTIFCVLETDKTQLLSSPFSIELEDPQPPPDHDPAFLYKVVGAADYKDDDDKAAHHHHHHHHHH

In the case of “wild type CTLA-4 (SEQ ID NO: 35) in Fc fusion format”, the Kd [1] is reported as 6.53 µM, the Kd [2] is reported as 6.42 µM and the fold-improvement in affinity over wild type CTLA-4 in Fc fusion format [3] is reported as 1 fold. For the same substance, the fold-improvement in affinity over wild type CTLA-4 in Fc fusion format [4] was 1 fold.
